Data as given in US12473372B2, “Inhibiting anti-ENPP1 antibodies” (The Regents of the University of California, priority 2020, dated 2025).

Key:
[1] = tested on: ENPP1 mediated cell death of cardiac fibroblasts; assay: Co-culture of cardiac fibroblasts and cardiomyocytes with recombinant ENPP1 and ATP, cell death; assay type: cell-based; details: for cell death and detachment of cardiac fibroblasts: images after 48 hours, versus IgG control, FIG. 18A
Method: FIG. 18A are exemplary micrographs showing ENPP1 mAb inhibits ENPP1 mediated cell death. Cardiac fibroblasts (green) were co-cultured with cardiomyocytes (red) followed by the addition of vehicle (panel A) or recombinant ENPP1 and ATP and IgG (panel B) or recombinant ENPP1 and ATP and 12-J-4 ENPP1mAb (panel C). Images were taken after 48 hours and show cell death and detachment of cardiac fibroblasts in the IgG control well (panel B).
FIG. 18B is an exemplary graph showing results of flow cytometry measuring cell death (PI+) from the assay performed in FIG. 18A.
Next, functional data was collected for the ENPP1 mAb using an in vitro functional assay. As shown in the previous examples, ENPP1 expression induced cardiomyocytes to release pro-inflammatory and pro-apoptotic molecules that induce cell death in a host of cell types in the injury region. To test the ENPP1 mAb, an in vitro functional assay was performed in which cardiac fibroblasts were incubated with cardiomyocytes followed by the addition of a vehicle, recombinant ENPP1 and ATP and IgG, or recombinant ENPP1 and ATP and 12-J-4 ENPP1mAb.

ENPP1 [2] = biological target: T1, ENPP1 (Homo sapiens, UniProt P22413); assay: Flow cytometry binding of ENPP1 mAb to HEK cells over-expressing full length ENPP1; design: HEK cells over-expressing full length ENPP1 were incubated with varying concentrations of ENPP1 mAb; expressed in transfected cells; host or cells: HEK cells; details: compared among several clones obtained; FIG. 15
T1 sequence (P22413 1-925): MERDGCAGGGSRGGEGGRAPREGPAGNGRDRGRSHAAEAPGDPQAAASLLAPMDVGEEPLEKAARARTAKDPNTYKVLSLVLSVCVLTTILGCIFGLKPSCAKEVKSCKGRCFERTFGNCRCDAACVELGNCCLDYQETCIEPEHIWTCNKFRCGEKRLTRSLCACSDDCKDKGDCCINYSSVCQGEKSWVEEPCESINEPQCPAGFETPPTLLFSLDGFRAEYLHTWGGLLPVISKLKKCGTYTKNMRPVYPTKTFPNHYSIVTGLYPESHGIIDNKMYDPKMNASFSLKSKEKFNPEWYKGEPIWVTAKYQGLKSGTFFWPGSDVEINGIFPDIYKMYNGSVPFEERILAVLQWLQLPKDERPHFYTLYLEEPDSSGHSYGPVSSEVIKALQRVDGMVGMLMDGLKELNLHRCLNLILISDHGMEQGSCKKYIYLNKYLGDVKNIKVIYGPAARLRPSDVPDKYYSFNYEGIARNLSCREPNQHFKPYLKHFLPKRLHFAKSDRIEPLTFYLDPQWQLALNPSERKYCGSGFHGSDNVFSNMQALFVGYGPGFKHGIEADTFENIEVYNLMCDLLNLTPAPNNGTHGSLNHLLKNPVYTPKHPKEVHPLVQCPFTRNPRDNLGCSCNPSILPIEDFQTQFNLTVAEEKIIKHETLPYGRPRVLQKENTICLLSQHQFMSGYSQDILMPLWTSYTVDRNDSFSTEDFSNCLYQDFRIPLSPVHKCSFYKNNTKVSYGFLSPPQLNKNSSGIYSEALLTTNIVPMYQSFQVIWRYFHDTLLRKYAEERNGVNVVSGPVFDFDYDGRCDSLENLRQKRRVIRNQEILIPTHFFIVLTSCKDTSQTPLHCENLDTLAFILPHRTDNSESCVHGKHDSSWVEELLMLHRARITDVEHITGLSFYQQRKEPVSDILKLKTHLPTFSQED
Method: FIG. 15 is an exemplary affinity binding curve of ENPP1 monoclonal antibody (mAb) targeting human ENPP1. HEK cells over-expressing full length ENPP1 were incubated with varying concentrations of ENPP1 mAb followed by flow cytometry to determine mean fluorescence intensity as a readout for binding. […] IgG at an identical concentration is used as a control.

murine ENPP1 = biological target: T2, murine ENPP1 (Mus musculus, UniProt P06802); assay: Cross reactivity of the antibody with murine ENPP1; assay type: binding; details: antibody raised against human recombinant protein
T2 sequence (P06802 1-906): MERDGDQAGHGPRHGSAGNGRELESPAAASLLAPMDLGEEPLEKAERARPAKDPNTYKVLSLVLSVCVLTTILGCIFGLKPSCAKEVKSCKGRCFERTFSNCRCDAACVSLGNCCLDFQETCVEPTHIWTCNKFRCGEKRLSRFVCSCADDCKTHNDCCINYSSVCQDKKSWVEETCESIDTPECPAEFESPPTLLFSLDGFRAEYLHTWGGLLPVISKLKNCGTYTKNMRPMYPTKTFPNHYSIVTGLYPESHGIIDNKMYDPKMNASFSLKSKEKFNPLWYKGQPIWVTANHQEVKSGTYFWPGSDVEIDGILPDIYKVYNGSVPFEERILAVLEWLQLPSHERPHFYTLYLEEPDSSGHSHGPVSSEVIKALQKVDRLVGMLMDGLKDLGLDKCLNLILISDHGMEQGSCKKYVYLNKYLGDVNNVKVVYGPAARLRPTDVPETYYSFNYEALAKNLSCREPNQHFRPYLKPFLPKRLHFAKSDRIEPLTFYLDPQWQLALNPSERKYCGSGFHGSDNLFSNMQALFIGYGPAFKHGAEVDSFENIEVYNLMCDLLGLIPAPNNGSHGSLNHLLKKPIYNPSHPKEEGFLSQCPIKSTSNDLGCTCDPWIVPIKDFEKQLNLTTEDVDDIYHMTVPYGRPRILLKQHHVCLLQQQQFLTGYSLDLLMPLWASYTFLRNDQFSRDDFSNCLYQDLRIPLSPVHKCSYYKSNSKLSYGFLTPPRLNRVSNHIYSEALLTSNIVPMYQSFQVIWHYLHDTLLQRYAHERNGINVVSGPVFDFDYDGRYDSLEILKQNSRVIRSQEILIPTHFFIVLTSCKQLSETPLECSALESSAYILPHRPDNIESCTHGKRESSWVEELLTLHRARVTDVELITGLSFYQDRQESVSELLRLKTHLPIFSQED
Text: The antibody was generated in collaboration with Lake Pharma using standard techniques of monoclonal antibody (mAb) generation, including immunization, collection and testing of hybridoma supernatants, cloning of hybridomas and further confirmation by multiple affinity assays followed by selection and production of the ENPP1mAb in a recombinant manner. […] The selected hybridoma has been sequenced and the recombinant monoclonal is produced on a CHO cell line with characterization by electropherogram and mass spectrometry. The molecular weight of the heavy chain is approximately 48 kD and the light chain 24 kD.

ENPP1 [3] = biological target: T1, ENPP1; assay: Luciferase based ATP assay of ENPP1 inhibition; assay type: biochemical; details: FIG. 17
Method: FIG. 17 is an exemplary graph showing the effect of monoclonal Ab 12-J-4 in inhibiting ENPP1. In a luciferase based assay, ATP was incubated with luciferase in the presence or absence of ENPP1+/−the mAb or IgG control. In the absence of ENPP1, high luminescence signal is obtained.

B1: 12-J-4: Anti-ENPP1 monoclonal antibody, IgG1kappa, made recombinantly in CHO cells; CDRs SEQ ID NO: 1-6, VH SEQ ID NO: 7, VL SEQ ID NO: 9 (antibody, V domains shown)
VH: EVMLVESGGGLVKPGGSLKLSCVASGFTFSSYTMSWVRQTPEKRLEWVATISGGGGNTYYPDSVKGRFTISRDNAKNTLYLQMSSLRSEDTALYYCARRHYGSSPYAMDYWGQGTSVTVSS
VL: DIQMTQTTSSLSASLGDRVTISCRASQDISNYLNWYQQKPDGTVKLLIYHKTRLHSGVPSRFSGSGSGTDYSLTISNLEQEDIATYFCQQGNMLPWTFGGGTKLEIK
modifications: IgG1 kappa constant regions
- PI+ cells (cell death) by flow cytometry ([1]; FIG. 18B): significant reduction
- cell death and detachment of cardiac fibroblasts [1]: significantly abrogated cell death
- cell death and detachment of cardiac fibroblasts ([1]; listed as ENPP1mAb): significantly diminished
- binding and inhibitory effects on ENPP1 activity (ENPP1 [2]): most potent
- cross reactivity with murine ENPP1 (murine ENPP1): significant cross reactivity
- luminescence signal when ENPP1 is added (ENPP1 [3]; ATP incubated with luciferase and ENPP1, compared to IgG): significantly higher
- inhibition of ENPP1 (ENPP1 [3]; at nanomolar concentrations): potently inhibits
